From publication PMC9712121 (Nature, 2022) come the findings set out here.

This data set deals with the molecule itself. The experiment in a line: negative-stain EM; TNKS2 SAM at 104 μM on carbon, 2% uranyl acetate; 3D refinement with D1 symmetry, projections compared with the SAM–PARP model and PDB 5JRT.

B1: TNKS2 SAM (867–940), wild type (domain or fragment, human, UniProt Q9H2K2 867-940, looked up)
chain: EKKEVPGVDFSITQFVRNLGLEHLMDIFEREQITLDVLVEMGHKELKEIGINAYGHRHKLIKGVERLISGQQGL
notes: Tankyrase 2 (TNKS2), human, SAM domain, residues 867-940; also called SAM domain
As for B1, the binding result was “binds”.
